Test results: paper PMC2525512

Molecular target: T1, murine OX40-human IgG Fc fusion (extracellular portion) (Mus musculus, UniProt P47741 20-211)
T1 sequence: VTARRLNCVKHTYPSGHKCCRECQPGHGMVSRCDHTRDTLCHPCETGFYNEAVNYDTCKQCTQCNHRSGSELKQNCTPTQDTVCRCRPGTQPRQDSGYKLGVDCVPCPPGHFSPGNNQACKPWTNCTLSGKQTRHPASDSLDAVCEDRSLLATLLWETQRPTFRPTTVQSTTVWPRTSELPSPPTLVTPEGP
Experiment: filter binding

B1: aptamer 9.8PM (point mutant) (structured_RNA)
RNA: GGGAGGACGAUGCGGCAGUCUGCAUCGUAGGAUUAGCCACCGUAUACUUUCCCACCAGACGACUCGCUGAGGAUCCGAGA
modifications: 2'-fluoro pyrimidines, 2'-OH purines
B1: no binding.
